According to patent publication US20180217151A1 (MILTENYI BIOTEC, published 2018):
Substitutions are numbered along the chain they refer to. Blank lines part the entries; values can stand above or below the binder they belong to.

What was measured:
Assay in all cases: SPR (Biacore), recombinant antigen (extracellular domain) immobilized by amine coupling, Fab as analyte, 1:1 binding mass transfer model
recombinant CD4 antigen = biological target: T1, recombinant CD4 antigen ( (the Fab labels human PBMCs), UniProt P01730)
T1 construct: extracellular domain; also called CD4, recombinant extracellular domain
Protocol: (§1) FIGS. 7A and 7B show surface plasmon resonance sensorgrams of anti-CD25 rFabs using immobilized recombinant CD25 antigen. At t 110 sec, different concentrations of Fab were injected for 180 sec. At t 290 sec, the dissociation phase started.
(§2) The Fab variants of example 1 and 4 were analyzed by surface plasmon resonance spectroscopy (Biacore™). Therefore, the specific recombinant antigen (extracellular domain, expressed in mammalian cells) for a Fab was immobilized on a CMS chip by standard amine coupling. The Fab variants were used as analytes in HBS-EP buffer (0.01 M HEPES pH 7.4, 0.15 M NaCl, 3 mM EDTA, 0.005% v/v Surfactant P20) in a concentration of up to 2 μM Fab. Evaluation was conducted with the Biacore™ X-100 Evaluation Software using an 1:1 binding mass transfer model.

recombinant CD28 antigen = biological target: T2, recombinant CD28 antigen ( (the Fab labels human PBMCs), UniProt P10747)
T2 construct: extracellular domain; also called CD28, recombinant extracellular domain
Protocol: as §1, §2

[1] = biological target: T3, recombinant CD45RA antigen ( (the Fab labels human PBMCs))
T3 construct: extracellular domain; also called CD45RA, recombinant extracellular domain
Protocol: as §1, §2

recombinant CD25 antigen = biological target: T4, recombinant CD25 antigen ( (the Fab labels human PBMCs), UniProt P01589)
T4 construct: extracellular domain; also called immobilized recombinant CD25 antigen; CD25, recombinant extracellular domain
T4 sequence (antigen, looked up): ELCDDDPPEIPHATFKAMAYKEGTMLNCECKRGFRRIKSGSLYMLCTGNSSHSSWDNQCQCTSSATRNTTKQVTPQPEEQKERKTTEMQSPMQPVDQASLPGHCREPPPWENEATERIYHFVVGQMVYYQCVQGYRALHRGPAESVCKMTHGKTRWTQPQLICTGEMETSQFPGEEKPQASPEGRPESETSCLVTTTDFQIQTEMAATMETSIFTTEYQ
Protocol: as §1, §2

recombinant CD3 antigen = recombinant CD3 antigen ( (the Fab labels human PBMCs))
Protocol: as §1, §2

Chain of recombinant CD3 antigen ( (the Fab labels human PBMCs)) (chain, as listed by the source): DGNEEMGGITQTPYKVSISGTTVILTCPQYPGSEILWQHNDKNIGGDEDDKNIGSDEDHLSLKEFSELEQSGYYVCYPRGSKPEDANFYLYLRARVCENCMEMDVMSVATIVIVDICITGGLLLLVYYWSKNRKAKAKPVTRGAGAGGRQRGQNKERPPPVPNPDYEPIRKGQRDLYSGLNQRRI

Kd [1]: 1300 nM
koff [1]: 0.11 s⁻¹
kon [1]: 88000 M⁻¹ s⁻¹
B3: MEM56-LAV rFab (Fab, V domains shown)
VH: QVQLQQSGAELAKPGASVKMSCKASGYNFTRYWMHWIKQRPGQGLEWIGYINPNTGHTEYNQKFKDKATLTADKSSSTAYMQLSSLTSEDSAVYYCATYYYGSRRDAGQGTTLTVSS
VL: QIVLTQSPAIMSASLGERVTMTCTTSSSVSSSYLHWYQQKPGSSPKLWIYSTSNLASGVPARFSGSGSGTSYSLTISTVEAEDAATYYCHQYHRSPLTFGAGTKLELKR
modifications: In the cell assay the Fab was biotinylated with a thiol-reactive reagent (e.g. maleimide-PEO2-biotin) on cysteines of the reduced disulfide bridge; positions not stated.
notes: Recombinant Fab from E. coli; heavy chain optionally followed by a poly-histidine tag; Biotinylated for the cell assay; also called mutated variant of anti-CD45RA clone MEM56

Kd (recombinant CD25 antigen): 21 nM
koff (recombinant CD25 antigen): 0.21 s⁻¹
kon (recombinant CD25 antigen): 1e+07 M⁻¹ s⁻¹
B5: RFT5-LAV rFab (Fab, V domains shown)
VH: EVQLQQSGTVLARPGASVKMSCKASGYSFTRYWMAWIKQRPGQGLEWIGAIYPGNSDTSYNQKFEGKAKLTAVTSASTAYMELSSLTHEDSAVYYCSRDYGYYFDFAGQGTTLTVSS
VL: QIVLTQSPAIMSASPGEKVTMTCSASSSISYMQWYQQKPGTSPKRWIYDTSKLASGVPARFSGSGSGTSYSLTISSMEAEDAATYYCHQRSSYTFGGGTKLEIKR
modifications: For the cell assay: biotin (thiol-reactive reagent) on cysteine(s) of the reduced disulfide bridge, position not stated
notes: Recombinant Fab from E. coli; heavy chain optionally followed by a poly-histidine tag; Biotinylated for the cell assay; also called mutated variant of anti-CD25 clone RFT5

Kd (recombinant CD3 antigen): 46 nM
koff (recombinant CD3 antigen): 0.19 s⁻¹
kon (recombinant CD3 antigen): 4.1e+06 M⁻¹ s⁻¹
B6: OKT3-hum rFab (Fab, V domains shown)
VH: QVQLVQSGGGVVQPGRSLRLSCKASGYTFTRYTMHWVRQAPGKGLEWIGYINPSRGYTNYNQKVKDRFTISRDNSKNTAFLQMDSLRPEDTGVYFCARYYDDHYSLDYWGQGTPVTVSS
VL: DIQMTQSPSSLSASVGDRVTITCSASSSVSYMNWYQQTPGKAPKRWIYDTSKLASGVPSRFSGSGSGTDYTFTISSLQPEDIATYYCQQWSSNPFTFGQGTKLQITR
modifications: For the cell assay: biotin (thiol-reactive reagent) on cysteine(s) of the reduced disulfide bridge, position not stated
notes: Recombinant Fab from E. coli; purified by IMAC; also called humanized variant of anti-CD3 clone OKT3; anti-CD3 rFab

The next lines start with the binder.

B1: 13B8.2-LAV rFab (Fab, V domains shown)
VH: QVQLKQSGPGLVQPSQSLSITCTVSGFSLTTFGVHWVRQSPGKGLEWLGVIWASGITDYNVPFMSRLSITKDNSKSQVFFKLNSLQPDDTAIYYCAKNDPGTGFAYWGQGTLVTVSA
VL: DIQMTQSPASLSASVGETVTFTCRASENIYSYLAWYQQKQGKSPQLLVHDAKTLAEGVPSRFSGGGSGTQFSLKINTLQPEDFGTYYCQHAYGNPPTFGGGTKLEIKR
modifications: For the cell assay: biotin (thiol-reactive reagent) on cysteine(s) of the reduced disulfide bridge, position not stated
notes: Recombinant Fab from E. coli; heavy chain optionally followed by a poly-histidine tag; Biotinylated for the cell assay; also called mutated variant of anti-CD4 clone 13B8.2
Kd (recombinant CD4 antigen): 15000 nM
koff (recombinant CD4 antigen): 0.006 s⁻¹
kon (recombinant CD4 antigen): 410 M⁻¹ s⁻¹

B2: 15E8-hum rFab (Fab, V domains shown)
VH: QVQLQESGPGLVKPSETLSLTCTVSGFSLTSYGVHWIRQPPGKGLEWLGVIWAGGSTNYNSSLKSRVTISKDTSKNQVSLKLSSVTAADTAVYYCARDKRAPGKLYYGYPDYWGQGTTLTVSS
VL: DIVMTQSPDSLAVSLGERATINCRASESVEYYVTSLMQWYQQKPGQPPKLLIYAASNVESGVPARFSGSGSGTDFTLTISPLQAEDVAVYYCQQTRKVPSTFGGGTKLEIKR
modifications: For the cell assay: biotin (thiol-reactive reagent) on cysteine(s) of the reduced disulfide bridge, position not stated
notes: Recombinant Fab from E. coli; heavy chain optionally followed by a poly-histidine tag; Biotinylated for the cell assay; also called humanized variant of anti-CD28 clone 15E8
Kd (recombinant CD28 antigen): 21 nM
koff (recombinant CD28 antigen): 0.089 s⁻¹
kon (recombinant CD28 antigen): 4.3e+06 M⁻¹ s⁻¹

B4: RFT5 rFab (Fab, V domains shown)
VH: B5 VH with A35H, A107W
VL: B5 VL
modifications: For the cell assay: biotin (thiol-reactive reagent) on cysteine(s) of the reduced disulfide bridge, position not stated
notes: Recombinant Fab from E. coli; heavy chain optionally followed by a poly-histidine tag; Biotinylated for the cell assay; also called anti-CD25 rFab (based on clone RFT5)
Kd (recombinant CD25 antigen): 0.2 nM
koff (recombinant CD25 antigen): 0.00038 s⁻¹
kon (recombinant CD25 antigen): 1.9e+06 M⁻¹ s⁻¹
